Drawing on paper PMC6842044, this text covers Kd for 1 molecule.

The target in this assay is Glial cell line-derived neurotrophic factor (GDNF), immobilised for SPR (UniProt P39905). The assay can be described thus: SPR.

B1: Activin receptor-like kinase 5 (ALK5), analyte in SPR (receptor)
chain: LQCFCHLCTKDNFTCVTDGLCFVSVTETTDKVIHNSMCIAEIDLIPRDRPFVCAPSSKTGSVTTTYCCNQDHCNKIELPTTVKSSPGLGPVELAAVIAGPVCFVCISLMLMVYICHNRTVIHHRVPNEEDPSLDRPFISEGTTLKDLIYDMTTSGSGSGLPLLVQRTIARTIVLQESIGKGRFGEVWRGKWRGEEVAVKIFSSREERSWFREAEIYQTVMLRHENILGFIAADNKDNGTWTQLWLVSDYHEHGSLFDYLNRYTVTVEGMIKLALSTASGLAHLHMEIVGTQGKPAIAHRDLKSKNILVKKNGTCCIADLGLAVRHDSATDTIDIAPNHRVGTKRYMAPEVLDDSINMKHFESFKRADIYAMGLVFWEIARRCSIGGIHEDYQLPYYDLVPSDPSVEEMRKVVCEQKLRPNIPNRWQSCEALRVMAKIMRECWYANGAARLTALRIKKTLSQLSQQEGIKM
As for B1, the equilibrium dissociation constant (Kd) is 85.5 nM.
